# ± gives the uncertainty stated by the source.
# Assay: self-splicing fitness, log relative to wild type (ln ratio); higher = more splicing; Tetrahymena group I intron in knt gene, E. coli kanamycin selection, DiMSum; sequences stand for … in CUCUCU…GGAGGGAAAAGUUAUCAGGCAUGCACCUGGUAGCUAGUCUUUAAACCAAUAGAUUGCAUCGGUUUAAAAGGCAAGACCGUCAAAUUGCGGGAAAGGGGUCAACAGCCGUUCAGUACCAAGUCUCAGGGGAAACUUUGAGAUGGCCUUGCAAAGGGUAUGGUAAUAAGCUGACGGACAUGGUCCUAACCACGCAGCCAAGUCCUAAGUCAACAGAUCUUCUGUUGAUAUGGAUGCAGUUCACAGACUAAAUGUCGGUCGGGGAAGAUGUAUUCUUCUCAUAAGAUAUAGUCGGACCUCUCCUUAAUGGGAGCUAGCGGAUGAAGUGAUGCAACACUGGAGCCGCUGGGAACUAAUUUGUAUGCGAAAGUAUAUUGAUUAGUUUUGGAGUACUCGUGGUCG
# How it was run: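 The eight P1ex-region nucleotides of an intron in the knt kanamycin-resistance gene on pET-22b(+) were all randomised and the library put into E. coli BL21(DE3). Six replicate transformations were grown overnight at 37°C or 30°C on LB agar with or without 25 μg/mL kanamycin, together with 100 μg/mL carbenicillin, 50 μM IPTG and 0.2% rhamnose. Colonies were pooled and amplicon-sequenced on an Illumina HiSeq 2500. Fitness from DiMSum is the error-weighted combination of wild-type-normalised replicate fold changes, kanamycin over none.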
Sequence,self-splicing fitness (ln) (30 °C),self-splicing fitness (ln) (37 °C)
AGCAAGCAAUAUUACGCUGC,-1.58 ± 0.2,-3.1 ± 0.31
AGCAAGCAAUAUUACGCUUA,-2.94 ± 0.15,-1.71 ± 0.11
AGCAAGCAAUAUUACGGAAU,-3.44 ± 0.15,-0.957 ± 0.093
AGCAAGCAAUAUUACGGCUA,-1.07 ± 0.088,-0.869 ± 0.093
AGCAAGCAAUAUUACGGGGA,-2.7 ± 0.14,-2.1 ± 0.14
AGCAAGCAAUAUUACGGUAC,-4.18 ± 0.2,-2.16 ± 0.16
AGCAAGCAAUAUUACGGUAU,-2.35 ± 0.075,-0.546 ± 0.068
AGCAAGCAAUAUUACGUAUA,-2.91 ± 0.15,-1.85 ± 0.15
AGCAAGCAAUAUUACGUAUC,-3.34 ± 0.26,-1.41 ± 0.2
AGCAAGCAAUAUUACGUAUG,-3.61 ± 0.14,-3.29 ± 0.18
AGCAAGCAAUAUUACGUCAG,-2.89 ± 0.16,-1.55 ± 0.18
AGCAAGCAAUAUUACGUCAU,-1.5 ± 0.078,-1.23 ± 0.084
AGCAAGCAAUAUUACGUCCU,0.639 ± 0.099,0.541 ± 0.11
AGCAAGCAAUAUUACGUCGA,-1.99 ± 0.11,-0.323 ± 0.097
AGCAAGCAAUAUUACGUUCA,-0.99 ± 0.081,-0.464 ± 0.1
AGCAAGCAAUAUUACGUUUU,-2.46 ± 0.077,-1.71 ± 0.09
AGCCAGCAAUAUUACGAAAC,-3.51 ± 0.48,-1.38 ± 0.26
AGCCAGCAAUAUUACGAAGG,-3.89 ± 0.41,-2.92 ± 0.31
AGCCAGCAAUAUUACGACGG,-4.18 ± 0.42,-1.35 ± 0.25
AGCCAGCAAUAUUACGAGCC,,-0.75 ± 0.32
AGCCAGCAAUAUUACGCAAA,-2.91 ± 0.34,-2.36 ± 0.2
AGCCAGCAAUAUUACGCAGG,-3.44 ± 0.14,-2.62 ± 0.18
AGCCAGCAAUAUUACGCAUG,-2.87 ± 0.11,-2.2 ± 0.12
AGCCAGCAAUAUUACGCGAU,-1.24 ± 0.14,-2.93 ± 0.32

Sequence,self-splicing fitness (ln) (30 °C),self-splicing fitness (ln) (37 °C)
AGCCAGCAAUAUUACGCGUA,-1.99 ± 0.13,-1.44 ± 0.14
AGCCAGCAAUAUUACGGAGU,-2.69 ± 0.19,-1.66 ± 0.14
AGCCAGCAAUAUUACGGGGC,-3.88 ± 0.15,-3.13 ± 0.14
AGCCAGCAAUAUUACGUCCU,-0.436 ± 0.071,0.142 ± 0.078
AGCCAGCAAUAUUACGUCGU,-1.75 ± 0.072,-1.58 ± 0.086
AGCCAGCAAUAUUACGUGCG,-0.906 ± 0.077,-0.256 ± 0.087
AGCGAGCAAUAUUACGAACA,-2.63 ± 0.23,-1.89 ± 0.2
AGCGAGCAAUAUUACGACGA,-1.13 ± 0.22,-2.2 ± 0.31
AGCGAGCAAUAUUACGAUAA,,-2.17 ± 0.24
AGCGAGCAAUAUUACGAUAC,-3.47 ± 0.47,-2.29 ± 0.39
AGCGAGCAAUAUUACGAUAG,-3.64 ± 0.43,-1.76 ± 0.35
AGCGAGCAAUAUUACGAUAU,-4.12 ± 0.29,-1.99 ± 0.19
AGCGAGCAAUAUUACGAUUC,-1.93 ± 0.16,-2.02 ± 0.27
AGCGAGCAAUAUUACGAUUG,-4.39 ± 0.42,-1.52 ± 0.34
AGCGAGCAAUAUUACGCAUC,-2.51 ± 0.36,-2.33 ± 0.33
AGCGAGCAAUAUUACGCCUU,-1.94 ± 0.25,-2.62 ± 0.48
AGCGAGCAAUAUUACGCGUA,-2.95 ± 0.34,-1.7 ± 0.18
AGCGAGCAAUAUUACGGCAU,-1.45 ± 0.12,-0.286 ± 0.14
AGCGAGCAAUAUUACGUAAA,-2.53 ± 0.18,-2.03 ± 0.31
AGCGAGCAAUAUUACGUACU,-0.777 ± 0.088,-0.674 ± 0.092
AGCGAGCAAUAUUACGUUCC,,-1.3 ± 0.24
AGCUAGCAAUAUUACGAACU,-0.899 ± 0.12,0.179 ± 0.16
AGCUAGCAAUAUUACGACAC,-2.07 ± 0.15,-1.11 ± 0.16
AGCUAGCAAUAUUACGAGCU,-2.65 ± 0.19,-1.92 ± 0.21
